Bridge positions count the residues as written; N and C are the ends. Square brackets hold non-standard residues; d marks the D form. 1Nal = N[C@@H](Cc1cccc2ccccc12)C(=O)O; hArg = N=C(N)NCCCC[C@H](N)C(=O)O; Cit = NC(=O)NCCC[C@H](N)C(=O)O; Aze = O=C(O)[C@@H]1CCN1; Aib = CC(C)(N)C(=O)O
B1: SEQ ID NO 898 (peptide)
peptide: Ac-[Aib]WVEH[hArg]LKGLLS[Cit]SGGVVRKNFVPTDVGPFAF-NH2
modifications: lactam 4-8
SMILES: CC(=O)NC(C)(C)C(=O)N[C@@H](Cc1c[nH]c2ccccc12)C(=O)N[C@H](C(=O)N[C@H]1CCC(=O)NCCCC[C@@H](C(=O)NCC(=O)N[C@@H](CC(C)C)C(=O)N[C@@H](CC(C)C)C(=O)N[C@@H](CO)C(=O)N[C@@H](CCCNC(N)=O)C(=O)N[C@@H](CO)C(=O)NCC(=O)NCC(=O)N[C@H](C(=O)N[C@H](C(=O)N[C@@H](CCCNC(=N)N)C(=O)N[C@@H](CCCCN)C(=O)N[C@@H](CC(N)=O)C(=O)N[C@@H](Cc2ccccc2)C(=O)N[C@H](C(=O)N2CCC[C@H]2C(=O)N[C@H](C(=O)N[C@@H](CC(=O)O)C(=O)N[C@H](C(=O)NCC(=O)N2CCC[C@H]2C(=O)N[C@@H](Cc2ccccc2)C(=O)N[C@@H](C)C(=O)N[C@@H](Cc2ccccc2)C(N)=O)C(C)C)[C@@H](C)O)C(C)C)C(C)C)C(C)C)NC(=O)[C@H](CC(C)C)NC(=O)[C@H](CCCCNC(=N)N)NC(=O)[C@H](Cc2c[nH]cn2)NC1=O)C(C)C
B2: SEQ ID NO 895 (peptide)
peptide: Ac-WVEHRLKGLLS[Cit]SGGVVRKNFVPTDVGPFAF-NH2
modifications: lactam 3-7
SMILES: CC(=O)N[C@@H](Cc1c[nH]c2ccccc12)C(=O)N[C@H](C(=O)N[C@H]1CCC(=O)NCCCC[C@@H](C(=O)NCC(=O)N[C@@H](CC(C)C)C(=O)N[C@@H](CC(C)C)C(=O)N[C@@H](CO)C(=O)N[C@@H](CCCNC(N)=O)C(=O)N[C@@H](CO)C(=O)NCC(=O)NCC(=O)N[C@H](C(=O)N[C@H](C(=O)N[C@@H](CCCNC(=N)N)C(=O)N[C@@H](CCCCN)C(=O)N[C@@H](CC(N)=O)C(=O)N[C@@H](Cc2ccccc2)C(=O)N[C@H](C(=O)N2CCC[C@H]2C(=O)N[C@H](C(=O)N[C@@H](CC(=O)O)C(=O)N[C@H](C(=O)NCC(=O)N2CCC[C@H]2C(=O)N[C@@H](Cc2ccccc2)C(=O)N[C@@H](C)C(=O)N[C@@H](Cc2ccccc2)C(N)=O)C(C)C)[C@@H](C)O)C(C)C)C(C)C)C(C)C)NC(=O)[C@H](CC(C)C)NC(=O)[C@H](CCCNC(=N)N)NC(=O)[C@H](Cc2c[nH]cn2)NC1=O)C(C)C
B3: SEQ ID NO 896 (peptide)
peptide: Ac-WVEHRLKGLLS[Cit]SGGVVRKNFVPTDVGPFAF-NH2
modifications: lactam 3-7
SMILES: CC(=O)N[C@@H](Cc1c[nH]c2ccccc12)C(=O)N[C@H](C(=O)N[C@H]1CCC(=O)NCCCC[C@@H](C(=O)NCC(=O)N[C@@H](CC(C)C)C(=O)N[C@@H](CC(C)C)C(=O)N[C@@H](CO)C(=O)N[C@@H](CCCNC(N)=O)C(=O)N[C@@H](CO)C(=O)NCC(=O)NCC(=O)N[C@H](C(=O)N[C@H](C(=O)N[C@@H](CCCNC(=N)N)C(=O)N[C@@H](CCCCN)C(=O)N[C@@H](CC(N)=O)C(=O)N[C@@H](Cc2ccccc2)C(=O)N[C@H](C(=O)N2CCC[C@H]2C(=O)N[C@H](C(=O)N[C@@H](CC(=O)O)C(=O)N[C@H](C(=O)NCC(=O)N2CCC[C@H]2C(=O)N[C@@H](Cc2ccccc2)C(=O)N[C@@H](C)C(=O)N[C@@H](Cc2ccccc2)C(N)=O)C(C)C)[C@@H](C)O)C(C)C)C(C)C)C(C)C)NC(=O)[C@H](CC(C)C)NC(=O)[C@H](CCCNC(=N)N)NC(=O)[C@H](Cc2c[nH]cn2)NC1=O)C(C)C
B4: SEQ ID NO 900 (peptide)
peptide: Ac-[1Nal]VEH[hArg]LKGLLS[Cit]SGGVVRKNFVPTDVGPFAF-NH2
modifications: lactam 3-7
SMILES: CC(=O)N[C@@H](Cc1cccc2ccccc12)C(=O)N[C@H](C(=O)N[C@H]1CCC(=O)NCCCC[C@@H](C(=O)NCC(=O)N[C@@H](CC(C)C)C(=O)N[C@@H](CC(C)C)C(=O)N[C@@H](CO)C(=O)N[C@@H](CCCNC(N)=O)C(=O)N[C@@H](CO)C(=O)NCC(=O)NCC(=O)N[C@H](C(=O)N[C@H](C(=O)N[C@@H](CCCNC(=N)N)C(=O)N[C@@H](CCCCN)C(=O)N[C@@H](CC(N)=O)C(=O)N[C@@H](Cc2ccccc2)C(=O)N[C@H](C(=O)N2CCC[C@H]2C(=O)N[C@H](C(=O)N[C@@H](CC(=O)O)C(=O)N[C@H](C(=O)NCC(=O)N2CCC[C@H]2C(=O)N[C@@H](Cc2ccccc2)C(=O)N[C@@H](C)C(=O)N[C@@H](Cc2ccccc2)C(N)=O)C(C)C)[C@@H](C)O)C(C)C)C(C)C)C(C)C)NC(=O)[C@H](CC(C)C)NC(=O)[C@H](CCCCNC(=N)N)NC(=O)[C@H](Cc2c[nH]cn2)NC1=O)C(C)C
B5: SEQ ID NO 893 (peptide)
peptide: Ac-WVEHRLKGLLS[Cit]SGGVVRKNFVPTDVGPFAF-NH2
modifications: lactam 3-7
SMILES: CC(=O)N[C@@H](Cc1c[nH]c2ccccc12)C(=O)N[C@H](C(=O)N[C@H]1CCC(=O)NCCCC[C@@H](C(=O)NCC(=O)N[C@@H](CC(C)C)C(=O)N[C@@H](CC(C)C)C(=O)N[C@@H](CO)C(=O)N[C@@H](CCCNC(N)=O)C(=O)N[C@@H](CO)C(=O)NCC(=O)NCC(=O)N[C@H](C(=O)N[C@H](C(=O)N[C@@H](CCCNC(=N)N)C(=O)N[C@@H](CCCCN)C(=O)N[C@@H](CC(N)=O)C(=O)N[C@@H](Cc2ccccc2)C(=O)N[C@H](C(=O)N2CCC[C@H]2C(=O)N[C@H](C(=O)N[C@@H](CC(=O)O)C(=O)N[C@H](C(=O)NCC(=O)N2CCC[C@H]2C(=O)N[C@@H](Cc2ccccc2)C(=O)N[C@@H](C)C(=O)N[C@@H](Cc2ccccc2)C(N)=O)C(C)C)[C@@H](C)O)C(C)C)C(C)C)C(C)C)NC(=O)[C@H](CC(C)C)NC(=O)[C@H](CCCNC(=N)N)NC(=O)[C@H](Cc2c[nH]cn2)NC1=O)C(C)C
B6: SEQ ID NO 903 (peptide)
peptide: Ac-WVTHRLEGLLKQSGGVV[hArg]KNFVPTDVGPFAF-NH2
SMILES: CC(=O)N[C@@H](Cc1c[nH]c2ccccc12)C(=O)N[C@H](C(=O)N[C@H](C(=O)N[C@@H](Cc1c[nH]cn1)C(=O)N[C@@H](CCCNC(=N)N)C(=O)N[C@@H](CC(C)C)C(=O)N[C@@H](CCC(=O)O)C(=O)NCC(=O)N[C@@H](CC(C)C)C(=O)N[C@@H](CC(C)C)C(=O)N[C@@H](CCCCN)C(=O)N[C@@H](CCC(N)=O)C(=O)N[C@@H](CO)C(=O)NCC(=O)NCC(=O)N[C@H](C(=O)N[C@H](C(=O)N[C@@H](CCCCNC(=N)N)C(=O)N[C@@H](CCCCN)C(=O)N[C@@H](CC(N)=O)C(=O)N[C@@H](Cc1ccccc1)C(=O)N[C@H](C(=O)N1CCC[C@H]1C(=O)N[C@H](C(=O)N[C@@H](CC(=O)O)C(=O)N[C@H](C(=O)NCC(=O)N1CCC[C@H]1C(=O)N[C@@H](Cc1ccccc1)C(=O)N[C@@H](C)C(=O)N[C@@H](Cc1ccccc1)C(N)=O)C(C)C)[C@@H](C)O)C(C)C)C(C)C)C(C)C)[C@@H](C)O)C(C)C
B7: SEQ ID NO 897 (peptide)
peptide: Ac-[1Nal]VEH[hArg]LKGLLS[Cit]SGGVVRKNFVPTDVGPFAF-NH2
modifications: lactam 3-7
SMILES: CC(=O)N[C@@H](Cc1cccc2ccccc12)C(=O)N[C@H](C(=O)N[C@H]1CCC(=O)NCCCC[C@@H](C(=O)NCC(=O)N[C@@H](CC(C)C)C(=O)N[C@@H](CC(C)C)C(=O)N[C@@H](CO)C(=O)N[C@@H](CCCNC(N)=O)C(=O)N[C@@H](CO)C(=O)NCC(=O)NCC(=O)N[C@H](C(=O)N[C@H](C(=O)N[C@@H](CCCNC(=N)N)C(=O)N[C@@H](CCCCN)C(=O)N[C@@H](CC(N)=O)C(=O)N[C@@H](Cc2ccccc2)C(=O)N[C@H](C(=O)N2CCC[C@H]2C(=O)N[C@H](C(=O)N[C@@H](CC(=O)O)C(=O)N[C@H](C(=O)NCC(=O)N2CCC[C@H]2C(=O)N[C@@H](Cc2ccccc2)C(=O)N[C@@H](C)C(=O)N[C@@H](Cc2ccccc2)C(N)=O)C(C)C)[C@@H](C)O)C(C)C)C(C)C)C(C)C)NC(=O)[C@H](CC(C)C)NC(=O)[C@H](CCCCNC(=N)N)NC(=O)[C@H](Cc2c[nH]cn2)NC1=O)C(C)C

Target: CGRP1 receptor (CRLR/RAMP1 complex) of human neuroblastoma SK-N-MC cells (human, UniProt Q16602 23-461; O60894 27-148)
Sequence (Q16602 23-461, chain 1 of 2): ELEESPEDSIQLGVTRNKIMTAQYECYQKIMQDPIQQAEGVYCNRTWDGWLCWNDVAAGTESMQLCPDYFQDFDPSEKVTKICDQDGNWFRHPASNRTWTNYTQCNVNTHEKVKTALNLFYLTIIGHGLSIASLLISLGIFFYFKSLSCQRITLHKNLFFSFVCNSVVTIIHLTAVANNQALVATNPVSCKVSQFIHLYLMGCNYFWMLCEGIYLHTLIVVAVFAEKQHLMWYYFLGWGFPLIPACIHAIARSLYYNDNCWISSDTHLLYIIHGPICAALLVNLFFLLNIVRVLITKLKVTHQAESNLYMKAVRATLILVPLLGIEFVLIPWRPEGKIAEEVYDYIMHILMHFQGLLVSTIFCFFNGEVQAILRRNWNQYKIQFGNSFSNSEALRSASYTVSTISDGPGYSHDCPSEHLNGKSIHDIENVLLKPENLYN
Sequence (O60894 27-148, chain 2 of 2): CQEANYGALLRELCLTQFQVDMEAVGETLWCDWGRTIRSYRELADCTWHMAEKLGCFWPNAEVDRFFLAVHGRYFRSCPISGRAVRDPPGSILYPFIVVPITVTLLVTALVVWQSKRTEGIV
Experiment: cell-based or functional assay

Binder	Peptide IC50 [nM]	PEG-peptide IC50 [nM]
WVEHRLKGELSRKGGVVXKNFVPTDVGPFAF (Ac-WVEHRLKGELSRKGGVV[hArg]KNFVPTDVGPFAF-NH2) [SEQ ID NO 901]	1.02	–
WVEHRLKGELSXKGGVVXKNFVPTDVGPFAF (Ac-WVEHRLKGELS[Cit]KGGVV[hArg]KNFVPTDVGPFAF-NH2) [SEQ ID NO 902]	0.49	–
B1	3.18	–
Ac-[Aib]WVEH[hArg]LKGLLS[Cit]SGGVVRKNFVPTDVGPFAF-NH2 (lactam 4-8; also: PEG-conjugated, in most cases at Lys25) [PEG-peptide of SEQ ID NO 898]	–	40.7
B2	2.8	–
Ac-WVEHRLKGLLSQSGGVV[hArg]KNFVPTDVGPFAF-NH2 (lactam 3-7; also: PEG-conjugated, in most cases at Lys25) [PEG-peptide of SEQ ID NO 904]	–	6.73
B3	1.61	–
B4	2.43	–
Ac-WVEHRLKGLLSQSGGVV[hArg]KNFVPTDVGPFAF-NH2 (lactam 3-7) [SEQ ID NO 904]	2.03	–
B5	1.64	–
Ac-WVEH[hArg]LKGLLS[Cit]SGGVVRKNFVPTDVGPFAF-NH2 (lactam 3-7; also: PEG-conjugated, in most cases at Lys25) [PEG-peptide of SEQ ID NO 894]	–	3.54
Ac-WVEH[hArg]LKGLLS[Cit]SGGVVRKNFVPTDVGPFAF-NH2 (lactam 3-7) [SEQ ID NO 894]	1.26	–
B6	3.5	–
Ac-[1Nal]VEH[hArg]LKGLLS[Cit]SGGVVRKNFVPTDVGPFAF-NH2 (lactam 3-7; also: PEG-conjugated, in most cases at Lys25) [PEG-peptide of SEQ ID NO 897]	–	4.1
B7	2.25	–
Ac-WVEHRLKGLLS[hArg]SGGVV[hArg]KNFVPTDVGPFAF-NH2 (lactam 3-7) [SEQ ID NO 905]	1.7	–
Ac-WVEH[hArg]LKGLLS[Cit]SG[Aze]VVRKNFVPTDVGPFAF-NH2 (lactam 3-7) [SEQ ID NO 899]	1.62	–

— patent publication US20080020978A1 (Amgen, published 2008)
